This experiment concerns the target SARS-CoV-2 (WA-1) Spike receptor binding domain (RBD)-mouse Fc fusion protein (SARS-CoV-2, UniProt P0DTC2). The experiment in a line: flow cytometry on cells. A general note: A flow cytometer gives signals particle by particle.

B1: FG-10A3 (Family G clone 10A3) human anti-SARS-CoV-2 Spike RBD neutralizing monoclonal antibody (antibody, V domains shown)
VH: QVQLVESGGGVVQPGRSLRLSCAASGFTFSSYGMNWVRQAPGKGLEWVAIIWYDGNNTYYVDSVKGRFTISRDNSKNTLYLQMNSLRAEDTAVYYCARKDGSKTYYGYYFDYWGQGTLVTVSS
VL: DIQMTQSPSSLSASVGDRVTITCRASQSIHSFLNWYQQKPGKPPNLLIYAASSLQSGLPSRFSGSGSGTDFTLTISSLQPEDFATYYCQQSYITPPTFGHGTKVEIK
As for B1, the binding result is “binds”.

(Values after doi:10.1101/2023.04.20.537738 (bioRxiv, 2023).)
